Reference: patent US20040260058A1 (published 2004)

Assays:
Test in all cases: yeast two-hybrid screen; number of positive colonies with this interactor
Notch 4 = Notch 4 (rat)
Procedure: (§1) A yeast two hybrid screen was carried out in order to identify A proteins which interact with L119. The entire coding region of the L119 cDNA was amplified in a polymerase chain reaction (PCR) and cloned into vector pPC86. The oligonucleotide primers having the sequences SEQ ID NO: 35 and 36 were used to do this. A 50 μl PCR mixture was prepared from 5 μl of 10× cloned Pfu buffer (Stratagene); 2 μl of DNTP mixture (5 mM; Cat. No. 1969064, Roche Diagnostics GmbH, Mannheim, Germany); in each case 2 μl of the abovementioned primer pairs (stock conc. 10 μM); 100 ng of rL119 cDNA template, 35 μl of H₂O and 1 μl of Pfu turbo DNA polymerase (Stratagene), and, after it had been incubated at 94° C. for 3 minutes, 28 PCR cycles were then carried out in accordance with the following temperature programm: 1 min of primer annealing at 56° C., 1 min of strand extension at 72° C. and 1 min of DNA double-strand melting at 94° C., together with a concluding extension step of 7 min at 72° C. The resulting PCR products were gel-purified, cut with the restriction enzymes SalI and NotI and cloned into the corresponding restriction cleavage sites of pPC86. The DNA construct obtained in this way encodes a protein in which the Gal4 DNA-binding domain is fused to the L119 protein. The yeast strain Y190 (Flick JS and Johnston M (1990) Mol. Cell. Biol. 10, 4757-4769; Harper J et al. (1993) Cell 75, 805-816) (from Life Technologies) was transformed with this construct. The resulting yeast strain was transformed with a rat brain cDNA library (obtained from cortex and hippocampus RNA, following maximal electroconvulsive shock (MECS) (Antony Lanahan and Paul Worley)) in the vector pPC86 (from Life Technologies), and 3×10⁶ transformants were plated out. After 3 to 5 days of growth at 30° C., colonies having a diameter of more than 2 mm were isolated and subjected to X-Gal staining (protocol: ProQuest™ Two-Hybrid System, Cat. Series 10835, Life Technologies) . […] The respective cDNA from these colonies was amplified using vector-specific primers and the-amplicon was sequenced (protocol: ProQuest™ Two-Hybrid System, Cat. Series 10835, Life Technologies). The sequence analysis gave 8 different putative interacting proteins (Table 1): […]

Nel = Nel (rat, UniProt Q62918)
Procedure: as §1

Matrilin-2 = Matrilin-2 (rat, UniProt A0A8I6GJR4 24-910)
Procedure: as §1

Laminin alpha-4 chain = Laminin alpha-4 chain (rat)
Procedure: as §1

Matrilin-2, sequence (A0A8I6GJR4 entry or part of it): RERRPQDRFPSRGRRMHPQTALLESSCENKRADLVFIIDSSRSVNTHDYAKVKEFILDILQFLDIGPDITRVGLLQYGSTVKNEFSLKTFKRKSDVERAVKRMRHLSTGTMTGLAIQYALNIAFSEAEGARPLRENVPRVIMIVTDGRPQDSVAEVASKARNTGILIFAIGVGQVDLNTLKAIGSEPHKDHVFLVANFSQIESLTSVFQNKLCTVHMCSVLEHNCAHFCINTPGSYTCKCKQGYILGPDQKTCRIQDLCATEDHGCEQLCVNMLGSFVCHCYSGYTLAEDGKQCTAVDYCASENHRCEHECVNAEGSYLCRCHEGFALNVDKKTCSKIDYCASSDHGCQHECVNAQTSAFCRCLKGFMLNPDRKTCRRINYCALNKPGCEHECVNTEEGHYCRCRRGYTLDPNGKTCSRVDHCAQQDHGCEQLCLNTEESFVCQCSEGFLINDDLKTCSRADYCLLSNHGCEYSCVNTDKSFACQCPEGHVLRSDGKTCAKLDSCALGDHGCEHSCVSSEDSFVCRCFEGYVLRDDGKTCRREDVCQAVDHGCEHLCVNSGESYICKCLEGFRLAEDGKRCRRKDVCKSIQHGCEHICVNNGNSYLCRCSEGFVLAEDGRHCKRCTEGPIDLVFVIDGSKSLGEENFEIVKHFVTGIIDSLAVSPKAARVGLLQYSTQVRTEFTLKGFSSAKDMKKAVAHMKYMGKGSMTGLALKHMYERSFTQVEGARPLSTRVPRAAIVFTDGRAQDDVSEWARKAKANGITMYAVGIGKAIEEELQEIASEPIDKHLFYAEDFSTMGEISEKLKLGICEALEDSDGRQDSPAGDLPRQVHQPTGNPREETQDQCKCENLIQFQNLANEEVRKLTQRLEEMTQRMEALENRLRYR
Nel, sequence (Q62918 whole entry): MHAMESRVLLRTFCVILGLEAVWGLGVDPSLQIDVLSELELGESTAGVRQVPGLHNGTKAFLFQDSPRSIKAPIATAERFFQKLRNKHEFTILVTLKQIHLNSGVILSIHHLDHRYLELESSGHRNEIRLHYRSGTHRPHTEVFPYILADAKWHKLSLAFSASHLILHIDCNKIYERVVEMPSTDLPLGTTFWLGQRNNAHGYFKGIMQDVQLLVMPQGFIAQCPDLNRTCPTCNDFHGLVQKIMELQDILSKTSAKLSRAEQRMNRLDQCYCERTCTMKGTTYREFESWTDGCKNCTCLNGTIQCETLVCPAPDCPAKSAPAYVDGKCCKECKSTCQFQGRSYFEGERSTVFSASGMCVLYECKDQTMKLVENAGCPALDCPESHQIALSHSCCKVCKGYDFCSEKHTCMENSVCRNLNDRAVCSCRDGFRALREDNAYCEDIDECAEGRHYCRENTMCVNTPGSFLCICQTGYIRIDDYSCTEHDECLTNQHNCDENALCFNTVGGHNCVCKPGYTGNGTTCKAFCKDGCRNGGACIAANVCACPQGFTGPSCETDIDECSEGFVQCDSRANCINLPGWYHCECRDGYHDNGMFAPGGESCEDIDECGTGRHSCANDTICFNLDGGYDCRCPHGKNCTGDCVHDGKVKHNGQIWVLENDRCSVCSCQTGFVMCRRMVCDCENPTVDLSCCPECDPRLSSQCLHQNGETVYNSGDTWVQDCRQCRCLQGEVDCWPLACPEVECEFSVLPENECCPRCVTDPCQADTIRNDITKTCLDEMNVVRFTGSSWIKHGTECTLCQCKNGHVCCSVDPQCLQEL

# Frequency (Notch 4): 3 | # Frequency (Nel): 5 | # Frequency (Matrilin-2): 1 | # Frequency (Laminin alpha-4 chain): 1
B1: Gal4 DNA-binding domain fused to the L119 protein (yeast two-hybrid bait) (other)
chain: MKLLSSIEQACDICRLKKLKCSKEKPKCAKCLKNNWECRYSPKTKRSPLTRAHLTEVESRLERLEQLFLLIFPREDLDMILKMDSLQDIKALLTGLFVQDNVNKDAVTDRLASVETDMPLTLRQHRISATSSSEESSNKGQRQLTVSMEKWTAWEPQGADALRRFQGLLLDRRGRLHCQVLRLREVARRLERLRRRSLAANVAGSSLSAAGALAAIVGLSLSPVTLGASLVASAVGLGVATAGGAVTITSDLSLIFCNSREVRRVQEIAATCQDQMRELLSCLEFFCQWQGRGDRQLLQSGRDASMALYNSVYFIVFFGSRGFLIPRRAEGATKVSQAVLKAKIQKLSESLESCTGALDELSEQLESRVQLCTKAGRGHNLRNSPDLDAALFF
notes: also called L119 bait
